# Entries after “also recorded” stand apart in the source; their conditions may differ.
# T1: phosphopeptide substrate H-Glu-Asn-Asp-Tyr(PO3H2)-Ile-Asn-Ala-Ser-Leu-OH
# T1 sequence: ENDYINASL
# T2: phosphopeptide substrate H-Glu-Asn-Asp-Tyr(PO3H2)-Ile-Asn-Ala-Ser-Leu-OH
# T2 chain: ENDYINASL
# What was measured:
# CAV VP2-GST PTPase = experiment: Sodium orthovanadate inhibition of PTPase activity; format: biochemical, Chicken anaemia virus
# Protocol: Stock 1 mM […] was made in distilled water and adjusted to pH 10 with sulphuric acid. Once dissolved, stock […] was added to AB and TB buffer at a ratio of 1:1:1 and adjusted to pH 7. Inhibition studies were conducted with 0.1 mM, 0.01 mM and 0.001 mM of sodium orthovanadate. All other reaction conditions were as described above. Assays were with 10 nmol substrate and 9 μg CAV VP2-GST and were in triplicate for each concentration of inhibitor.
# [1] = tested on: T1, phosphopeptide substrate H-Glu-Asn-Asp-Tyr(PO3H2)-Ile-Asn-Ala-Ser-Leu-OH
# [2] = known PTPases, comparison values; cited from earlier work
# [3] = biological target: T2, phosphopeptide substrate …
# [4] = tested on: peptide substrate ENDY(Pi)INASL; experiment: Enzyme pH optimum of CAV VP2-GST PTPase; format: biochemical
# Protocol: Triplicate reactions were set up at pH 4, pH 5, pH 6, pH 7, pH 8 and pH 9. Assays were with 10 nmol substrate and 9 μg CAV VP2-GST and all other reaction conditions were as described above. Prior to addition of the malachite green reagent the pH was neutralised to pH 7 with either sulphuric acid or sodium hydroxide.
# [5] = tested on: peptide substrate ENDY(Pi)INASL; format: biochemical
molecule,measurement,setting,value
[Na+].[Na+].[Na+].[O]=[V]([O-])([O-])[O-] [sodium orthovanadate],Inhibition of VP2-GST PTPase activity,CAV VP2-GST PTPase,specifically inhibited; also recorded: completely inhibited
same,Orthovanadate concentration giving maximal inhibition of CAV VP2 activity (as low as),CAV VP2-GST PTPase,0.001 mM
TLMV ORF2-GST fusion protein,PTPase activity (steady state),[1],The steady state activity was equivalent to that demonstrated for CAV VP2
PTP1B: low Mr PTPase cited for comparison [reference compound],Vmax,[2],20 000 U/mg min
"CD45: high Mr PTPase from human spleen cited for comparison (protein, UniProt P08575 26-1306, looked up) Receptor-type …: QSPTPSPTGLTTAKMPSVPLSSDPLPTHTTAFSPASTFERENDFSETTTSLSPDNTSTQVSPDSLDNASAFNTTGVSSVQTPHLPTHADSQTPSAGTDTQTFSGSAANAKLNPTPGSNAISDVPGERSTASTFPTDPVSPLTTTLSLAHHSSAALPARTSNTTITANTSDAYLNASETTTLSPSGSAVISTTTIATTPSKPTCDEKYANITVDYLYNKETKLFTAKLNVNENVECGNNTCTNNEVHNLTECKNASVSISHNSCTAPDKTLILDVPPGVEKFQLHDCTQVEKADTTICLKWKNIETFTCDTQNITYRFQCGNMIFDNKEIKLENLEPEHEYKCDSEILYNNHKFTNASKIIKTDFGSPGEPQIIFCRSEAAHQGVITWNPPQRSFHNFTLCYIKETEKDCLNLDKNLIKYDLQNLKPYTKYVLSLHAYIIAKVQRNGSAAMCHFTTKSAPPSQVWNMTVSMTSDNSMHVKCRPPRDRNGPHERYHLEVEAGNTLVRNESHKNCDFRVKDLQYSTDYTFKAYFHNGDYPGEPFILHHSTSYNSKALIAFLAFLIIVTSIALLVVLYKIYDLHKKRSCNLDEQQELVERDDEKQLMNVEPIHADILLETYKRKIADEGRLFLAEFQSIPRVFSKFPIKEARKPFNQNKNRYVDILPYDYNRVELSEINGDAGSNYINASYIDGFKEPRKYIAAQGPRDETVDDFWRMIWEQKATVIVMVTRCEEGNRNKCAEYWPSMEEGTRAFGDVVVKINQHKRCPDYIIQKLNIVNKKEKATGREVTHIQFTSWPDHGVPEDPHLLLKLRRRVNAFSNFFSGPIVVHCSAGVGRTGTYIGIDAMLEGLEAENKVDVYGYVVKLRRQRCLMVQVEAQYILIHQALVEYNQFGETEVNLSELHPYLHNMKKRDPPSEPSPLEAEFQRLPSYRSWRTQHIGNQEENKSKNRNSNVIPYDYNRVPLKHELEMSKESEHDSDESSDDDSDSEEPSKYINASFIMSYWKPEVMIAAQGPLKETIGDFWQMIFQRKVKVIVMLTELKHGDQEICAQYWGEGKQTYGDIEVDLKDTDKSSTYTLRVFELRHSKRKDSRTVYQYQYTNWSVEQLPAEPKELISMIQVVKQKLPQKNSSEGNKHHKSTPLLIHCRDGSQQTGIFCALLNLLESAETEEVVDIFQVVKALRKARPGMVSTFEQYQFLYDVIASTYPAQNGQVKKNNHQEDKIEFDNEVDKVKQDANCVNPLGAPEKLPEAKEQAEGSEPTSGTEGPEHSVNGPASPALNQGS",Vmax,[2],1 000 U/mg min
CAV VP2-GST fusion protein (protein) MHGNGGQPAAGGSESALSREGQPGPSGAAQGQVISNERSPRRYSTRTINGVQATNKFTAVGNPSLQRDPDWYRWNYSHSIAVWLRECSRSHAKICNCGQFRKHWFQECAGLEDRSTQASLEEAILRPLRVQGKRAKRKLDYHYSQPTPNRKKVYKTVRWQDELADREADFTPSEEDGGTTSSDFDEDINFDIGGDSGIVDELLGRPFTTPAPVRIV,"Km (PTPase assay, malachite green, Lineweaver-Burk plot)",[3],Km to be 16.95 µM
same,"Vmax (PTPase assay, malachite green, Lineweaver-Burk plot)",[3],Vmax was estimated to be 14 280 U/mg min
same,"Vo with 0.001 mM orthovanadate, 10 nmol substrate",[3],0.002
same,"Vo with 0.01 mM orthovanadate, 10 nmol substrate",[3],0
same,"Vo with 0.1 mM orthovanadate, 10 nmol substrate",[3],0
same,"Vo without orthovanadate, 10 nmol substrate",[3],5.61
same,"mean Vo (nmol) at pH 4, 10 nmol substrate",[3],1.75 nmol
same,"mean Vo (nmol) at pH 5, 10 nmol substrate",[3],1.47 nmol
same,"mean Vo (nmol) at pH 6, 10 nmol substrate",[3],5.64 nmol
same,"mean Vo (nmol) at pH 7, 10 nmol substrate",[3],5.61 nmol
same,"mean Vo (nmol) at pH 8, 10 nmol substrate",[3],1.83 nmol
same,"mean Vo (nmol) at pH 9, 10 nmol substrate",[3],0 nmol
"VP2-GST: CAV viral protein 2 produced as fusion with glutathione S-transferase in E. coli (protein, left off: a dimerising Fc or GST, CAV viral protein 2 produced as fusion with glutathione S-transferase in E. coli) MHGNGGQPAAGGSESALSREGQPGPSGAAQGQVISNERSPRRYSTRTINGVQATNKFTAVGNPSLQRDPDWYRWNYSHSIAVWLRECSRSHAKICNCGQFRKHWFQECAGLEDRSTQASLEEAILRPLRVQGKRAKRKLDYHYSQPTPNRKKVYKTVRWQDELADREADFTPSEEDGGTTSSDFDEDINFDIGGDSGIVDELLGRPFTTPAPVRIV","mean Vo, PTPase activity","[4]; pH 4, S 10 nmol",1.746 nmol
same,"mean Vo, PTPase activity","[4]; pH 5, S 10 nmol",1.474 nmol
same,"mean Vo, PTPase activity","[4]; pH 6, S 10 nmol",5.636 nmol
same,"mean Vo, PTPase activity","[4]; pH 7, S 10 nmol",5.612 nmol
same,"mean Vo, PTPase activity","[4]; pH 8, S 10 nmol",1.829 nmol
same,"mean Vo, PTPase activity","[4]; pH 9, S 10 nmol",0.000 nmol
same,pH of optimal PTPase activity,"[4]; reactions at pH 4 to pH 9, listed as CAV VP2",6-7
same,1/Vmax,[5]; linear regression of double reciprocal plot,0.060
same,Vmax,"[5]; substrate ENDY(Pi)INASL, Lineweaver-Burk plot, Vo at 1 min",14 280 U/mg min

# From patent US7442378B2, “Attenuated circovirus” (The University of Melbourne, priority 2001, dated 2008)
